# Biological target: Lrp4-myc (mouse full length Lrp4) (mouse) (UniProt Q8VI56)
# Sequence of UniProt Q8VI56 (Q8VI56 21-1905): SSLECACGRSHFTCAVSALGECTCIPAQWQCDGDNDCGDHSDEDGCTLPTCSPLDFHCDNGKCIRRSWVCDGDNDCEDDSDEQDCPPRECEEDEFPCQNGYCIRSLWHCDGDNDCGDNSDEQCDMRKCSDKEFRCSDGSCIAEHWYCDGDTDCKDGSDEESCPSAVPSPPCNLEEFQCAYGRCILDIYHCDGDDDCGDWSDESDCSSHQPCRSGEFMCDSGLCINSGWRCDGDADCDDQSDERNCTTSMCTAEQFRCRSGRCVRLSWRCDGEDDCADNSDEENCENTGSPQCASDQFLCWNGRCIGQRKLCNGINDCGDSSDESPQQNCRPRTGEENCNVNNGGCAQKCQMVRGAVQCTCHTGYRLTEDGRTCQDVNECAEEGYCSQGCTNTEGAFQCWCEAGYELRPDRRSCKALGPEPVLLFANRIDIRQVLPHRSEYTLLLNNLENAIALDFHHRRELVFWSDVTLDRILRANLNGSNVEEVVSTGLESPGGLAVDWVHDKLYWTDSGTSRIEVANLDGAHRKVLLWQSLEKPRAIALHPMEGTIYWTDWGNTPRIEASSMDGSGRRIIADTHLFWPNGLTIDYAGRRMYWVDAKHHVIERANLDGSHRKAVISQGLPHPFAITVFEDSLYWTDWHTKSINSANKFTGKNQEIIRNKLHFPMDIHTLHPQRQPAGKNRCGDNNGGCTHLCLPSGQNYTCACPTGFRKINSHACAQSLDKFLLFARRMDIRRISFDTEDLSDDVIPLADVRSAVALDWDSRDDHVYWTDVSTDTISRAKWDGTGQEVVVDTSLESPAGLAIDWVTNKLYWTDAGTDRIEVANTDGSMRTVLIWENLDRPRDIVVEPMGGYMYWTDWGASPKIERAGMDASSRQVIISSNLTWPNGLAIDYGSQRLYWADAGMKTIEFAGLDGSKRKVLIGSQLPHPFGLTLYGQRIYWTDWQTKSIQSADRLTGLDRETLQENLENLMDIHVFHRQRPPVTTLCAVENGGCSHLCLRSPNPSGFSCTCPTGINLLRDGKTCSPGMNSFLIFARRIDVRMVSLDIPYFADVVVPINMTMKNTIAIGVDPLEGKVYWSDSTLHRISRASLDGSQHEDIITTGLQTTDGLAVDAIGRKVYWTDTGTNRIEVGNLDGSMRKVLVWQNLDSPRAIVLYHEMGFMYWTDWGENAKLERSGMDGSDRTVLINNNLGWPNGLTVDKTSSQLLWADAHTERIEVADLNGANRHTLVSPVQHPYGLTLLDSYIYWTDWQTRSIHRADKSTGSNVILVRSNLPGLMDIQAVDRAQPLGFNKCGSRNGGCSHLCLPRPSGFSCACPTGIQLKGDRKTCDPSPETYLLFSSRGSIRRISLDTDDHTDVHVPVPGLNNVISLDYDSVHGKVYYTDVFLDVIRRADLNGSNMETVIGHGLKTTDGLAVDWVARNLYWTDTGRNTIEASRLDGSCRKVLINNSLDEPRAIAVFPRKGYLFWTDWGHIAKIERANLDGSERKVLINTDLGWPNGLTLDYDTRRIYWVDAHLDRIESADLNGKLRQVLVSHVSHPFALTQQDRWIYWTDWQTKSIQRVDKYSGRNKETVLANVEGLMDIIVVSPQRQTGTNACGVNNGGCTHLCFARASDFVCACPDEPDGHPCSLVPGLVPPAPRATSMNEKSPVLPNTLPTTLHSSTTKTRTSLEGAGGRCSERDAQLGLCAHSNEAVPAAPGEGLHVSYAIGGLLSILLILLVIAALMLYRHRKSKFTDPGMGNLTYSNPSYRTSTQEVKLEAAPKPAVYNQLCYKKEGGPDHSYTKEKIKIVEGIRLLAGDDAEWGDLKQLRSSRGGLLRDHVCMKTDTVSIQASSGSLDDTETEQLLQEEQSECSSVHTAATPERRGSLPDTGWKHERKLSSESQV
substance,measurement,value
"NT-1654, C-terminal 44 kDa fragment of murine agrin (from UniProt A2ASQ1 1519-1950) (domain or fragment)","AChR clustering on differentiated C2C12 myotubes, 16 h (area of AChR clusters normalized to myotube area), EC50",440 pM

# — publication PMC3919806
